Experimental data reported in patent US20060222643A1 (Chugai, published 2006).
No end group written: not given here.

Assays:
[1] = target: human Mpl expressed on BaF3 cells (BaF3-human Mpl) (human) (UniProt P40238); experiment: cell-based or functional assay
[2] = target: T1, human Mpl expressed on BaF3 cells (BaF3-human Mpl) (human, UniProt P40238 26-635); experiment: cell-based or functional assay
T1 sequence: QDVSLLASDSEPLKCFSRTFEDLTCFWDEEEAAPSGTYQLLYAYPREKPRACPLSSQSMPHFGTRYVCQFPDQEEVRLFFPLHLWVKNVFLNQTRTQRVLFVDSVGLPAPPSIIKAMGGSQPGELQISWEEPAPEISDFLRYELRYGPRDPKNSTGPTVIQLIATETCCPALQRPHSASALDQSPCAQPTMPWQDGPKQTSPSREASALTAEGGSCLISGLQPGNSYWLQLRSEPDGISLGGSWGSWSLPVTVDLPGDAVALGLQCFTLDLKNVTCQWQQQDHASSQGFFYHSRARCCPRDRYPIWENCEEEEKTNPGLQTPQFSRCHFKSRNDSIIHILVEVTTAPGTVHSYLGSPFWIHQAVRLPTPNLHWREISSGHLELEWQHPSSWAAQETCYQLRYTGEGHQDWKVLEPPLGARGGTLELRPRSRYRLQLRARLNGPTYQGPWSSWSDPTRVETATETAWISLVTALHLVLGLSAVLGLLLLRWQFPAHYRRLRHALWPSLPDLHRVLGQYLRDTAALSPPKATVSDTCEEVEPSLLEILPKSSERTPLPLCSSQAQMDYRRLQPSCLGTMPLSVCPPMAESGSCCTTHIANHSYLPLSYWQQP

[3] = target: T2, cynomolgus monkey Mpl expressed on CHO cells (CHO-monkey Mpl) (cynomolgus monkey, UniProt P40238 26-635 (human entry)); experiment: flow cytometry on CHO-monkey Mpl cells; COS7 culture supernatant; detection with anti-FLAG M2 antibody and FITC-labeled anti-mouse IgG
T2 construct: pCXND3-monkey Mpl-His in CHO-DG44; also called monkey Mpl-His
T2 chain: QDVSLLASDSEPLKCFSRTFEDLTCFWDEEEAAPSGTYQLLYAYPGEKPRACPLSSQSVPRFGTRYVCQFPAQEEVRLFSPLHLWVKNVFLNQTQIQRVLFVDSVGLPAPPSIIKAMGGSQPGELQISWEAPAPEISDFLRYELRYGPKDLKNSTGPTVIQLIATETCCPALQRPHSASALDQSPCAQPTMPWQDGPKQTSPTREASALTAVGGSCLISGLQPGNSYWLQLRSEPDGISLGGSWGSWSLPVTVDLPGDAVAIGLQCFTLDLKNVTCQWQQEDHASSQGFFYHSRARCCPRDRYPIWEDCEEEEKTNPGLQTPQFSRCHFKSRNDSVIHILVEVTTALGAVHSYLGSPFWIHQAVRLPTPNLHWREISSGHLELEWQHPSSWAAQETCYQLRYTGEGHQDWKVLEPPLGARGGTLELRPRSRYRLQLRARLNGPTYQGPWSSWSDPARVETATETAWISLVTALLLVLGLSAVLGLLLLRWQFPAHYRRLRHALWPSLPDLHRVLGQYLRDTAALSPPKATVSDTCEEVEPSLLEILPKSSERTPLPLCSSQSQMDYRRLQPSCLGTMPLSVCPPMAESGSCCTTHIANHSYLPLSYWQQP
Protocol: (§1) CHO-human Mpl, CHO-monkey Mpl, and CHO-mouse Mpl cells were recovered and suspended in FACS buffer (1% FBS/PBS) to a final concentration of 1×10⁶ cells/mL. Cell suspensions were aliquoted at 100-μL/well into the Multiscreen-HV Filter Plates (Millipore). After centrifugation, the supernatant was removed. An appropriate concentration of diabody or sc(Fv)2 was added into each well and incubated on ice for 30 min. The cells were washed once with 200 μL of FACS buffer, and incubated on ice for 30 min following the addition of 10 μg/mL ANTI-FLAG® M2 Monoclonal Antibody (Sigma-Aldrich). The cells were then washed once with 200 μL of FACS buffer, and a 100×-diluted FITC-labeled anti-mouse IgG antibody (Beckman Coulter) was added to the plate. The plate was incubated on ice for 30 min. After centrifugation, the supernatant was removed. The cells were suspended in 400 μL of FACS Buffer, and then analyzed by flow cytometry using EPICS ELITE ESP (Beckman Coulter). An analysis gate was set on the forward and side scatters of a histogram to include viable cell populations.
(§2) The binding activities of the diabodies were assessed by flow cytometry using CHO cells that express Mpl derived from various species (FIG. 8). AB317 was proven to bind to CHO-mouse Mpl.

[4] = target: T3, mouse Mpl expressed on CHO cells (CHO-mouse Mpl) (mouse, UniProt Q08351 26-625); experiment: flow cytometry on CHO-mouse Mpl cells; COS7 culture supernatant; detection with anti-FLAG M2 antibody and FITC-labeled anti-mouse IgG
T3 construct: whole, on cells; pCXND3-mouse Mpl-His in CHO-DG44; also called mouse Mpl-His
T3 sequence (looked up): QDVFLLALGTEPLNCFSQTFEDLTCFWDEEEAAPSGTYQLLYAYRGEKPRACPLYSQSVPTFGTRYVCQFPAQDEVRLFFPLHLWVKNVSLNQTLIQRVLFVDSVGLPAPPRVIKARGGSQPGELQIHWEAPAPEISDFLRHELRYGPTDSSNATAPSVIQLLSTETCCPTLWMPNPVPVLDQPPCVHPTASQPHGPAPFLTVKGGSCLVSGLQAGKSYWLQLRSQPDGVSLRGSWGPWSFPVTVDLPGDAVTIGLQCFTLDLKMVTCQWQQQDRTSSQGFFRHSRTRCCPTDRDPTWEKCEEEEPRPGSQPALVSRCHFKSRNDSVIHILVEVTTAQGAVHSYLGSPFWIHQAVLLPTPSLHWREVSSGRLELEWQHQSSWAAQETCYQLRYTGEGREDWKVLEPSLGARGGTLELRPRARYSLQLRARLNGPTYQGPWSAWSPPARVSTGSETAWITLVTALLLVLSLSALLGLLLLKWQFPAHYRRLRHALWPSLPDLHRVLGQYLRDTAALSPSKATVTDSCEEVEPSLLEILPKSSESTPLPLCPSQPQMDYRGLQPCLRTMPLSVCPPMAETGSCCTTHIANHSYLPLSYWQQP
Protocol: as §1, §2

[5] = target: T3, mouse Mpl expressed on CHO cells …; experiment: flow cytometry on CHO cells, detection by anti-FLAG M2 and FITC anti-mouse IgG
Protocol: as §1
(§3) The binding activity of the purified VB22B sc(Fv)2 to various Mpl molecules expressed in CHO cells was determined (FIG. 2).

[6] = target: T2, cynomolgus monkey Mpl expressed on CHO …; experiment: as above
Protocol: as §1, §3

[7] = target: T4, MG10 (Gln213 to Ala231)-GST fusion protein (human, also: fused with GST); experiment: SPR, Biacore 3000, MG10-GST immobilized on CM5, Bivalent analyte model (constants as for the monovalent antibody), triplicate
T4 construct: As MG1; also called MG10-GST fusion protein; GST fusion protein containing MG10; not shown: glutathione-S-transferase of vector pGEX-4T-3 (Amersham Biosciences)
T4 chain: QPTMPWQDGPKQTSPSREA
Protocol: The Sensor Chip CM5 (Biacore) was placed in Biacore 3000 (Biacore), and MG10-GST fusion protein was immobilized onto the chip by amine-coupling methods. HBS-EP Buffer (Biacore) was used as the running buffer, and the flow rate was 20 μL/min. 5.5 to 175.0 nM of VB22B IgG solution was prepared using HBS-EP Buffer, and injected over each of the chip surfaces for 2 min to obtain the binding region at the respective concentrations. Then, dissociation region for the 2 minutes was measured. VB22B IgG bound to the MG10-GST fusion protein on the sensor chip was removed by injecting 20 mM HCl over the sensor chip for 1 min, and the chip was recovered. Similarly, 4.7 to 150.1 nM of VB22B sc(Fv)2, 5.3 to 168.9 nM of hVB22B q-wz5 sc(Fv)2, and 4.9 to 156.8 nM of hVB22B u2-wz4 sc(Fv)2 were prepared and injected over the chip surfaces onto which MG10-GST fusion protein was immobilized, and the measurement was carried out.
All the antibodies used were bivalent antibodies, and thus the sensorgrams at each concentration were obtained in the presence of both monovalent and bivalent bindings. In this context, the reaction rate constant was determined as that for the monovalent antibody by analysis using the Bivalent analyte model of BIAevaluation ver.3.1 software (Biacore). The above analysis was carried out in triplicates for each antibody. The binding rate constant (ka), dissociation rate constant (kd), and dissociation constant (KD) were determined as those for the monovalent antibody by the procedure described above. The constants are indicated below in Table 1.

| Molecule | agonistic activity, EC50 (growth of BaF3-human Mpl, WST-8) [1] [nM] | TPO-like agonistic activity, EC50 (growth of BaF3-human Mpl, WST-8) [2] [nM] | binding result [3] | binding result [4] | binding result [5] | binding result [6] | Kd [7] [nM] | koff [7] [s⁻¹] | kon [7] [M⁻¹ s⁻¹] |
| --- | --- | --- | --- | --- | --- | --- | --- | --- | --- |
| recombinant human thrombopoietin (rhTPO, R&D) (from UniProt P40225 22-353) (ligand) | 0.076 |  |  |  |  |  |  |  |  |
| VB22B diabody (scFv, also called VB22B db; VB22B single-chain Fv) scFv: QVQLQQSGPELVKPGASVKISCKASGYAFTNSWMNWVKQRPGKGLEWIGRIYPGDGETIYNGKFRVKATLTADKSSSTAYMDISSLTSEDSAVYFCARGYDDYSFAYWGQGTLVTVSAGGGGSDIVMTQAAPSIPVTPGESVSISCRSSKSLLHSNGNTYLYWFLQRPGQSPQLLIYRMSNLASGVPDRFSGSGSGTAFTLRISRVEAEDVGVYYCMQHIEYPFTFGSGTKLEIK |  | 0.061 | binds | no binding |  |  |  |  |  |
| VB22B sc(Fv)2 (scFv, Single-chain (Fv)2 with 15-residue linkers, purified on anti-Flag gel (FLAG-tagged); also called murine VB22B sc(Fv)2; anti-human Mpl sc(Fv)2) QVQLQQSGPELVKPGASVKISCKASGYAFTNSWMNWVKQRPGKGLEWIGRIYPGDGETIYNGKFRVKATLTADKSSSTAYMDISSLTSEDSAVYFCARGYDDYSFAYWGQGTLVTVSAGGGGSGGGGSGGGGSDIVMTQAAPSIPVTPGESVSISCRSSKSLLHSNGNTYLYWFLQRPGQSPQLLIYRMSNLASGVPDRFSGSGSGTAFTLRISRVEAEDVGVYYCMQHIEYPFTFGSGTKLEIKGGGGSGGGGSGGGGSQVQLQQSGPELVKPGASVKISCKASGYAFTNSWMNWVKQRPGKGLEWIGRIYPGDGETIYNGKFRVKATLTADKSSSTAYMDISSLTSEDSAVYFCARGYDDYSFAYWGQGTLVTVSAGGGGSGGGGSGGGGSDIVMTQAAPSIPVTPGESVSISCRSSKSLLHSNGNTYLYWFLQRPGQSPQLLIYRMSNLASGVPDRFSGSGSGTAFTLRISRVEAEDVGVYYCMQHIEYPFTFGSGTKLEIK |  | 0.027 |  |  | no binding | binds | 11.7 | 0.00491 | 423000 |
| hVB22B q-wz5 sc(Fv)2 (scFv, Humanized sc(Fv)2 without Flag tag, purified on an MG10-GST column; also called humanized VB22B sc(Fv)2 (q-wz5)) QVQLVQSGPEVKKPGASVKVSCKASGYTFTNSWMNWVRQRPGKGLEWIGRIYPGDGETIYNGKFRVRVTITADESTSTAYMELSSLRSEDTAVYYCARGYDDYSFAYWGQGTTVTVSSGGGGSGGGGSGGGGSDIVMTQSPLSLPVTPGEPASISCRSSKSLLHSNGNTYLYWFQQKPGQAPRLLIYRMSNLASGVPDRFSGSGSGTAFTLKISRVEAEDVGVYYCMQHIEYPFTFGQGTKLEIKGGGGSGGGGSGGGGSQVQLVQSGPEVKKPGASVKVSCKASGYTFTNSWMNWVRQRPGKGLEWIGRIYPGDGETIYNGKFRVRVTITADESTSTAYMELSSLRSEDTAVYYCARGYDDYSFAYWGQGTTVTVSSGGGGSGGGGSGGGGSDIVMTQSPLSLPVTPGEPASISCRSSKSLLHSNGNTYLYWFQQKPGQAPRLLIYRMSNLASGVPDRFSGSGSGTAFTLKISRVEAEDVGVYYCMQHIEYPFTFGQGTKLEIK |  |  |  |  |  |  | 13.6 | 0.0051 | 376000 |
| hVB22B u2-wz4 sc(Fv)2 (scFv, Humanized sc(Fv)2 without Flag tag, purified on an MG10-GST column; also called humanized VB22B sc(Fv)2 (u2-wz4)) QVQLVQSGPEVKKPGASVKVSCKASGYTFTNSWMNWVRQRPGKGLEWIGRIYPGDGETIYNGKFRVRVTITADESTSTAYMQLSSLRSEDTAVYYCARGYDDYSFAYWGQGTTVTVSSGGGGSGGGGSGGGGSDIVMTQSPLSLPVTPGEPASISCRSSKSLLHSNGNTYLYWFLQKPGQSPQLLIYRMSNLASGVPDRFSGSGSGTDFTLKISRVEAEDVGVYYCMQHIEYPFTFGQGTKLEIKGGGGSGGGGSGGGGSQVQLVQSGPEVKKPGASVKVSCKASGYTFTNSWMNWVRQRPGKGLEWIGRIYPGDGETIYNGKFRVRVTITADESTSTAYMQLSSLRSEDTAVYYCARGYDDYSFAYWGQGTTVTVSSGGGGSGGGGSGGGGSDIVMTQSPLSLPVTPGEPASISCRSSKSLLHSNGNTYLYWFLQKPGQSPQLLIYRMSNLASGVPDRFSGSGSGTDFTLKISRVEAEDVGVYYCMQHIEYPFTFGQGTKLEIK |  |  |  |  |  |  | 10.2 | 0.00617 | 608000 |
